In FireProtDB (doi:10.1021/bi00021a022):

Conditions: Saccharomyces cerevisiae (strain ATCC 204508 / S288c), reversible: yes
[1] = pH 4, 27 °C, Thermal, DSC, Potassium acetate 50 mM, structure 1YCC
[2] = pH 4, Thermal, DSC, Potassium acetate 50 mM, structure 1YCC
[3] = pH 4.6, 27 °C, Thermal, DSC, Potassium acetate 50 mM, structure 1YCC
[4] = pH 4.6, Thermal, DSC, Potassium acetate 50 mM, structure 1YCC
[5] = pH 7, 22 °C, GdnHCl, Fluorescence, Potassium phosphate 0.1 M, structure 1YCC
[6] = pH 3.5, 27 °C, Thermal, DSC, Potassium acetate 50 mM, structure 1YCC
[7] = pH 3.5, Thermal, DSC, Potassium acetate 50 mM, structure 1YCC
[8] = pH 5, 27 °C, Thermal, DSC, Potassium acetate 50 mM, structure 1YCC
[9] = pH 5, Thermal, DSC, Potassium acetate 50 mM, structure 1YCC
[10] = pH 3.5, Thermal, DSC, Potassium acetate 50 mM
[11] = pH 4, Thermal, DSC, Potassium acetate 50 mM
[12] = pH 4.6, Thermal, DSC, Potassium acetate 50 mM
[13] = pH 5, Thermal, DSC, Potassium acetate 50 mM
[14] = pH 7, 22 °C, GdnHCl, Fluorescence, Potassium phosphate 0.1 M

Cytochrome c isoform 1 N58M, P00044, sequence (P00044 whole entry N58M, canonical isoform): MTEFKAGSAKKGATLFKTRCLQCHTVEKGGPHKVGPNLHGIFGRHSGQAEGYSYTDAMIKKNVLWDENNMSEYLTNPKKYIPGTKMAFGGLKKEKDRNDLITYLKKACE
Cytochrome c isoform 1 N58V, P00044, sequence (P00044 whole entry N58V, canonical isoform): as the sequence (P00044 whole entry N58M, canonical isoform) above, with M58V counted along it
Cytochrome c isoform 1 N58I, P00044, sequence (P00044 whole entry N58I, canonical isoform): as the sequence (P00044 whole entry N58M, canonical isoform) above, with M58I counted along it
Cytochrome c isoform 1 wild type, P00044, sequence (P00044 whole entry, canonical isoform): as the sequence (P00044 whole entry N58M, canonical isoform) above, with M58N counted along it
Cytochrome c isoform 1 N58A, P00044, sequence (P00044 whole entry N58A, canonical isoform): as the sequence (P00044 whole entry N58M, canonical isoform) above, with M58A counted along it
Cytochrome c isoform 1 N58H, P00044, sequence (P00044 whole entry N58H, canonical isoform): as the sequence (P00044 whole entry N58M, canonical isoform) above, with M58H counted along it
Cytochrome c isoform 1 N58Q, P00044, sequence (P00044 whole entry N58Q, canonical isoform): as the sequence (P00044 whole entry N58M, canonical isoform) above, with M58Q counted along it
Cytochrome c isoform 1 N58S, P00044, sequence (P00044 whole entry N58S, canonical isoform): as the sequence (P00044 whole entry N58M, canonical isoform) above, with M58S counted along it
Cytochrome c isoform 1 N58T, P00044, sequence (P00044 whole entry N58T, canonical isoform): as the sequence (P00044 whole entry N58M, canonical isoform) above, with M58T counted along it

Substance	ddG of mutation (higher = less stable) [1] [kcal/mol]	unfolding free energy [1] [kcal/mol]	Tm [2] [°C]	change of melting temperature, mutant - wild type (higher = more stable) [2] [°C]	unfolding enthalpy (calorimetric) [2] [kcal/mol]	ddG of mutation (higher = less stable) [3] [kcal/mol]	unfolding free energy [3] [kcal/mol]	Tm [4] [°C]	change of melting temperature, mutant - wild type (higher = more stable) [4] [°C]	unfolding enthalpy (calorimetric) [4] [kcal/mol]	ddG of mutation (higher = less stable) [5] [kcal/mol]	denaturant midpoint (higher = more stable) [5] [M]	unfolding free energy [5] [kcal/mol]	ddG of mutation (higher = less stable) [8] [kcal/mol]	unfolding free energy [8] [kcal/mol]	Tm [9] [°C]	change of melting temperature, mutant - wild type (higher = more stable) [9] [°C]	unfolding enthalpy (calorimetric) [9] [kcal/mol]	other results
Cytochrome c isoform 1 N58V, P00044	-2.44	4.96	54.3	8.9	86.5	-1.67	5.7	58	8.8	92.4	-2.02	1.77	7.88	–	–	–	–	–	–
Cytochrome c isoform 1 N58I, P00044	-3.03	5.55	–	–	–	–	–	62.2	13	101	-4.1	2.09	9.96	-2.02	7.64	64.2	0.9	108	ddG of mutation (higher = less stable) [6]: -2.62 kcal/mol; unfolding free energy [6]: 4.26 kcal/mol; Tm [7]: 52.4 °C; change of melting temperature, mutant - wild type (higher = more stable) [7]: 12.3 °C; unfolding enthalpy (calorimetric) [7]: 80.7 kcal/mol
Cytochrome c isoform 1 N58H, P00044	–	–	–	–	–	1.27	2.76	47.5	-1.7	64.1	1.7	1.41	4.16	–	–	–	–	–	–
Cytochrome c isoform 1 N58L, P00044	–	–	–	–	–	-2.56	6.59	62.1	12.9	97.4	-4.73	2.17	10.6	–	–	–	–	–	–
Cytochrome c isoform 1 N58T, P00044	-1.01	3.53	49.2	3.8	75.3	-0.59	4.62	54.5	5.3	82.9	-1.9	1.58	7.76	0.53	5.09	55.3	-8	88.6	ddG of mutation (higher = less stable) [6]: -0.98 kcal/mol; unfolding free energy [6]: 2.62 kcal/mol; Tm [7]: 45.4 °C; change of melting temperature, mutant - wild type (higher = more stable) [7]: 5.3 °C; unfolding enthalpy (calorimetric) [7]: 63.4 kcal/mol
Cytochrome c isoform 1 N58Q, P00044	–	–	–	–	–	–	3.95	51.2	2	78.7	–	1.39	5.02	–	–	–	–	–	–
Cytochrome c isoform 1 wild type, P00044	–	–	–	–	–	–	–	–	–	–	–	–	–	–	–	–	–	–	unfolding free energy (pH 3.5, 27 °C, Thermal, DSC, Potassium acetate 50 mM): 1.64 kcal/mol; Tm [10]: 40.1 °C; unfolding enthalpy (calorimetric) [10]: 55.3 kcal/mol; unfolding free energy (pH 4, 27 °C, Thermal, DSC, Potassium acetate 50 mM): 2.52 kcal/mol; Tm [11]: 45.4 °C; unfolding enthalpy (calorimetric) [11]: 64.2 kcal/mol; unfolding free energy (pH 4.6, 27 °C, Thermal, DSC, Potassium acetate 50 mM): 4.03 kcal/mol; Tm [12]: 49.2 °C; unfolding enthalpy (calorimetric) [12]: 78.8 kcal/mol; unfolding free energy (pH 5, 27 °C, Thermal, DSC, Potassium acetate 50 mM): 5.62 kcal/mol; Tm [13]: 63.3 °C; unfolding enthalpy (calorimetric) [13]: 107 kcal/mol; denaturant midpoint (higher = more stable) [14]: 1.34 M; unfolding free energy [14]: 5.86 kcal/mol
Cytochrome c isoform 1 N58M, P00044	-2.91	5.43	58.9	13.5	89	-2.25	6.28	62.6	13.4	96	-4.04	2.14	9.9	–	–	–	–	–	–
Cytochrome c isoform 1 N58A, P00044	–	–	–	–	–	-0.63	4.66	53.7	4.5	84	-2.97	1.52	8.83	–	–	–	–	–	–
Cytochrome c isoform 1 N58S, P00044	-0.74	3.26	46.7	1.3	70.8	0.05	3.98	51	1.8	78.7	–	–	–	1.29	4.33	52.6	-10.7	83.2	–
